This is an account of results in PMC10329633, “Molecular basis and design principles of switchable front-rear polarity and directional migration in Myxococcus xanthus” (Nature Communications, 2023).

Experiment [1] has as its target MalE-RomR (Myxococcus xanthus). Kind of experiment: mass photometry; single proteins in solution, diluted into phosphate-buffered saline; MalE-RomR and MalE-RomR^C at 25 nM and 50 nM.
The target of experiment [2] is MalE-MglC (Myxococcus xanthus). Kind of experiment: mass photometry; mixtures of MalE-MglC with MalE-RomR or MalE-RomR^C in solution, diluted into phosphate-buffered saline.
The target of experiment [3] is MalE-RomR^C (Myxococcus xanthus). The experiment can be described thus: mass photometry; single proteins in solution, diluted into phosphate-buffered saline; MalE-RomR and MalE-RomR^C at 25 nM and 50 nM.
The target of experiment [4] is MalE-MglC (Myxococcus xanthus). Described as above.
Experiment [5] has as its target T1, MglA-His6 (Myxococcus xanthus, UniProt Q1DB04 1-195).
T1 construct: MglA, small GTPase of Myxococcus xanthus; Preloaded with GTP, GppNHp or GDP (40 µM) according to the experiment; the nucleotide is named in the assay's format; also called MglA-GTP; source: E. coli Rosetta 2(DE3), purified (Ni-NTA, Superdex 75 gel filtration); not shown: His6, C-terminal, kept
T1 sequence: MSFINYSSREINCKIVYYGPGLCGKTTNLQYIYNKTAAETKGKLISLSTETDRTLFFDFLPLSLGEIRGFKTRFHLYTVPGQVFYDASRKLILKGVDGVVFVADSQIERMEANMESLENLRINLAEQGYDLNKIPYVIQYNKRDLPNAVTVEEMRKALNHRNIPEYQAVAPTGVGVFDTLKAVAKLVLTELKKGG
The experiment can be described thus: pull-down; Strep-MglC as bait on Strep-Tactin beads; 40 µM GppNHp in all buffers; without or with MglA-His6 preincubated with GppNHp; proteins 10 µM; MglB detected by immunoblot with α-MglB. To be noted: both partners purified. (In general: Immunoblotting shows a protein as a band on a membrane.)

Several values for one entry are separate records, joined by “and”; a condition that tells them apart may be missing. Equal entries are not always repeated.

What is called stoichiometry N is a count of units in the complex or per binding partner. Take MalE-RomR (natural protein): the stoichiometry N in experiment [1] is 2 and 3. Besides, in experiment [2], the stoichiometry N (RomR per MglC (printed as 2:2)) is 1 and the stoichiometry N (RomR per MglC (printed as 3:2)) worked out at 1.5.

Turning to MalE-RomR^C (domain or fragment), the stoichiometry N in experiment [3] was 2 and 3. In experiment [2], the stoichiometry N (RomR^C per MglC (printed as 2:2)) came out at 1 and the stoichiometry N (RomR^C per MglC (printed as 3:2)) is 1.5.

MalE-MglC (natural protein): the stoichiometry N in experiment [4] stood at 2.

B1: His6-MglB (natural protein, Myxococcus xanthus)
chain: MGTQLVMYEEEFTKINAVCDRLTKDANAKVVFLVDKNGQLISSAGQTQNIDTTSLASLTAGNVAAMGGLAKLIGENEFPNQFHEGAKDSLYMTIVGSRVVLVVIFDNRTSLGLVRLRIKKASDELTKIFESLVKKTDSPGAGSPFAEISDDDIDNLFSE
notes: also called MglB-His6; MglB^WT; source: E. coli Rosetta 2(DE3), purified (Ni-NTA, Superdex 75 gel filtration); not shown: His6, N-terminal, kept
On to B1, for which the binding result in experiment [5] was “binds”.
